Tests used:
[1] = target: T1, full-length IGSF8 (recombinant antigen of the SPR screen; IGSF8 target antigen of the phage panning) (human, UniProt Q969P0 28-579, limits assumed); assay: SPR, Biacore T100
T1 sequence (looked up): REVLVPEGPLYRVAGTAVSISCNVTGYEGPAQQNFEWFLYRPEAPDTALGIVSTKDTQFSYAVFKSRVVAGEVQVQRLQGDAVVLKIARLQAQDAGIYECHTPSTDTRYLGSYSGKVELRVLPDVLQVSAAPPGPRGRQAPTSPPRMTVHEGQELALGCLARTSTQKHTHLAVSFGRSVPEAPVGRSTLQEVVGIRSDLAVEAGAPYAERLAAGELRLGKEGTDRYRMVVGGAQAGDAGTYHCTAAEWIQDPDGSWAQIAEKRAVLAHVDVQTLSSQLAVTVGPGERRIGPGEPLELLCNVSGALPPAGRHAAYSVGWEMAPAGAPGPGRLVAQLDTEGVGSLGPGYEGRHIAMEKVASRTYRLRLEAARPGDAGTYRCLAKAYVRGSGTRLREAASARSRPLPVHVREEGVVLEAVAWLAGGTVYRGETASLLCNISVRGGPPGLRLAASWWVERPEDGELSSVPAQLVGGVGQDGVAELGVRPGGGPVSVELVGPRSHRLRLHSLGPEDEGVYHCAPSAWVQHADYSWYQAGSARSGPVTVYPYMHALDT

[2] = target: T2, mouse IGSF8 expressed on CT26 cells (mouse, UniProt Q8R366 26-611); assay: FACS on CT26 cells
T2 construct: whole, on cells
T2 sequence (looked up): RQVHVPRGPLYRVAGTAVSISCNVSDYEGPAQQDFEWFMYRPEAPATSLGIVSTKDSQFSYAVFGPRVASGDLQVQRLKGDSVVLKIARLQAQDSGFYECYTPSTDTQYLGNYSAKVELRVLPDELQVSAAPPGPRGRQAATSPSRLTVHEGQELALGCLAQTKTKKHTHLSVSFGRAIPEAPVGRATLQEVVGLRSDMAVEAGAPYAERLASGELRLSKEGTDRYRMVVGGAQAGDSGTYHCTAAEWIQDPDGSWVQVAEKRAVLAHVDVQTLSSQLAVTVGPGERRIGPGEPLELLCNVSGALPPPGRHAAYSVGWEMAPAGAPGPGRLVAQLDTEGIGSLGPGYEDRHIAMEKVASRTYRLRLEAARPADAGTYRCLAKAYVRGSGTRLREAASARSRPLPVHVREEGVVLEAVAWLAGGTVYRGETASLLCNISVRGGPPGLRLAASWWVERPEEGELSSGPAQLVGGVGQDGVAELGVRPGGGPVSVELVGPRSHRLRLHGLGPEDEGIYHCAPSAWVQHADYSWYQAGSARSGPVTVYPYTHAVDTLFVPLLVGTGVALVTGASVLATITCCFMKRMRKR

[3] = target: T3, D1 domain of IGSF8 (recombinant protein) (human, UniProt Q969P0 28-149, limits assumed); assay: SPR, Biacore T100
T3 construct: domain: D1 (Ig V-set domain); also called Ig V-set domain of IGSF8
T3 sequence (looked up): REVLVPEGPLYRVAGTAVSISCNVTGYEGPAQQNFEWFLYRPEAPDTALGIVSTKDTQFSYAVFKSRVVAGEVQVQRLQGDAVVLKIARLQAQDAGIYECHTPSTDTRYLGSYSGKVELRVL

[4] = target: T4, IGSF8 protein without D1 domain (human, UniProt Q969P0 150-579, limits assumed); assay: FACS, single antibody dose, IGSF8-D24 (D2-D4 with TM, no D1) expressed on CT26 cells
T4 construct: domain: D2-4; also called D24; D2-4
T4 sequence (looked up): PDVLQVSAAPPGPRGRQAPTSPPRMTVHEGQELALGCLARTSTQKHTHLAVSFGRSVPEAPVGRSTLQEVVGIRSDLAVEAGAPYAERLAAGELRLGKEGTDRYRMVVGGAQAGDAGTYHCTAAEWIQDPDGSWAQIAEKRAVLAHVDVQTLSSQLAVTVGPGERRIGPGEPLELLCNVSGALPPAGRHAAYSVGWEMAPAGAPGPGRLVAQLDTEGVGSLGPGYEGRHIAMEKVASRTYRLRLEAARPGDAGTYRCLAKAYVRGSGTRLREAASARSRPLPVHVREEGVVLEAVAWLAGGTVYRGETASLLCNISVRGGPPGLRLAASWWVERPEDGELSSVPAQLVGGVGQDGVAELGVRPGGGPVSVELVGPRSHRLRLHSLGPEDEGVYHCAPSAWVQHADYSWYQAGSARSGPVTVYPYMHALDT

[5] = target: T5, human IGSF8 expressed on the cell surface (human, UniProt Q969P0 28-613); assay: FACS on CT26 cells with forced surface expression of human IGSF8
T5 construct: whole, on cells; also called human IGSF8 on CT26 cells; IGSF8 on MC38 cells
T5 sequence (looked up): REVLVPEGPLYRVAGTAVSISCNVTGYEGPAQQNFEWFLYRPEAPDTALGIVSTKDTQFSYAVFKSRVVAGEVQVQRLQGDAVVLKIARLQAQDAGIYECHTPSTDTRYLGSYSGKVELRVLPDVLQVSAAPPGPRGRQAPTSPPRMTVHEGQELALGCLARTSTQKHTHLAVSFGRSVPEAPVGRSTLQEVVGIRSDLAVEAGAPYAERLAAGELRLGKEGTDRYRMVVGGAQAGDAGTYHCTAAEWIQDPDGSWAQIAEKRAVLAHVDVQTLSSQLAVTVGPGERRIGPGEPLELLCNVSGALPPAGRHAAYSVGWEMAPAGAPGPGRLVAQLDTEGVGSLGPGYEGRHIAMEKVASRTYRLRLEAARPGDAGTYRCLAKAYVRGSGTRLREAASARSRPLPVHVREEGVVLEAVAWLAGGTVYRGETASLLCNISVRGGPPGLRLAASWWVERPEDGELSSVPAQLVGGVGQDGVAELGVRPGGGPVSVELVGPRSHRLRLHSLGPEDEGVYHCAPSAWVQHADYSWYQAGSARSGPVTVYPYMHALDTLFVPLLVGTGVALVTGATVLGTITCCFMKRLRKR
Description: For antibody binding assays based on cell-expressed antigens, 100,000 cells overexpressing the antigen (either the full-length IGSF8 or the D1 domain thereof) were washed with PBS buffer containing 2% FBS, and then incubated with 100 μL of antibodies or IgG of different concentrations for 30 minutes on ice. Cells were then washed twice with wash buffer, and incubated with 100 μL of 1:100 anti-human Fc-PE antibody for 15 minutes on ice. Cells were washed twice with wash buffer and analyzed on a FACS analyzer (CytoFlex, Beckman).

[6] = target: T4, IGSF8 protein without D1 domain; assay: FACS, hFc-tagged proteins on CT26 cells expressing the receptor, MFI normalized to Thy1.1
Description: (§1) KLRC1 also contains a ITIM motif in its intracellular domain, and was known to be a inhibitory receptor of NK or CD8⁺ T cells as part of a heterodimer with KLRD1 on the cell surface. […] Specifically, 100,000 CT26 cells overexpressing the antigens (KIRs or KLRs) were washed with PBS buffer containing 2% FBS, and incubated with 100 μL IGSF8 recombinant proteins or antibodies (5 μg/mL) for 30 minutes on ice. Cells were then washed twice with wash buffer, and incubated with 100 μL of 1:100 anti-human Fc-PE antibody for 15 minutes on ice. Cells were washed twice with wash buffer and analyzed on a FACS analyzer (CytoFlex, Beckman). In these experiments, the mean fluorescence intensity (MFI) of IGSF8 binding to different CT26 cells were normalized by the expression of different KLRs on CT26 cells using an anti-thy1.1 mAb via flow cytometry.

[7] = target: T6, recombinant human IGSF8 extracellular domain tagged by a human Fc region (IGSF8-hFc) (human, UniProt Q969P0 28-579, biotin label in Examples 17, 18 and 28 (site not given)); assay: FACS, biotin-labelled IGSF8-hFc on CT26 cells expressing the KIR, MFI normalized to Thy1.1
T6 construct: also called IGSF8-Fc fusion protein; IGSF8-hFc-biotin; not shown: human Fc region
T6 sequence: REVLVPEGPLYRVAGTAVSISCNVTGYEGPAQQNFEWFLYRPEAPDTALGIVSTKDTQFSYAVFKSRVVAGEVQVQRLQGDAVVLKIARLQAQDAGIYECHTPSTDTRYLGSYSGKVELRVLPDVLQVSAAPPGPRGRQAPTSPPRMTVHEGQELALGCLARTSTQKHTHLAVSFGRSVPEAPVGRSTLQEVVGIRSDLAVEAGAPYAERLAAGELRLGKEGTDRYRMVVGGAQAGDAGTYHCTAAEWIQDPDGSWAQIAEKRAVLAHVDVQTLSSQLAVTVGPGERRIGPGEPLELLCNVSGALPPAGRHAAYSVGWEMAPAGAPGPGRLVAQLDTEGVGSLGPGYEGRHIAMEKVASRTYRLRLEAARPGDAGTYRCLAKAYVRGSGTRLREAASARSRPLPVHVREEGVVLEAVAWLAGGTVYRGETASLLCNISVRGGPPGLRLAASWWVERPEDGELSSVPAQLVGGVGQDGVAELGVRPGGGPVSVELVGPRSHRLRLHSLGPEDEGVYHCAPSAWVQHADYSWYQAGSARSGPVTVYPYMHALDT
Description: For this experiment, different human KIR receptors (KIR2DL1, KIR2DL2, KIR2DL3, KIR2DL4, KIR2DL5A, KIR2DL5B, KIR3DL1, KIR3DL2, KIR3DL3) were first cloned into a proprietary lentiviral vector containing a thy1.1 tag (FIG. 17A). Then mouse CT26 cells, were transducted by these lentiviral constructs, and IGSF8 binding was tested with biotin-labelled recombinant IGSF8 hFc fusion protein. The mean fluorescence intensity (MFI) of IGSF8 binding to different CT26 cells were normalized by the expression of different KIRs on CT26 cells using an anti-thy1.1 mAb (Biolegend) via flow cytometry.
as §1

B1: Antibody C31 (B46) (antibody, V domains shown)
VH: QVQLVESGGGVVQPGRSLRLSCAASGFTFSTYGMHWVRQAPGKGLEWVAVIWDDGSYKYYGDSVKGRFTISRDNSKNTLYLQMNSLRAEDTAVYYCAGGYSYSYMAIWGKGTTVTVSS
VL: DIVLTQSPSSLSASVGDRVTITCRASQGISTFLNWYQQKPGKAPKLLIYAASSLQSGVPSRFSGSGSGTDFTLTIGSLQPEDFASYFCQQTYSTQWTFGQGTKVEIK
notes: also called mAb-B46 (C31)
- Kd [1]: 7.29 nM
- binding result [2]: binds
- Kd [3]: < 50 nM
- binding result [4]: no binding (tested: not shown on the sheet)
- EC50 [5]: 2.08 nM

B2: KLRC1/KLRD1 heterodimer expressed on CT26 cells (receptor)
chain 1: not shown
chain 2: MAVFKTTLWRLISGTLGIICLSLMSTLGILLKNSFTKLSIEPAFTPGPNIELQKDSDCCSCQEKWVGYRCNCYFISSEQKTWNESRHLCASQKSSLLQLQNTDELDFMSSSQQFYWIGLSYSEEHTAWLWENGSALSQYLFPSFETFNTKNCIAYNPNGNALDESCEDKNRYICKQQLI
notes: whole, on cells; cells co-transfected with both lentiviral constructs; also called KLRC1&D1 heterodimer; KLRC1/D1
- binding result [6]: no binding

B3: KIR3DL1 expressed on CT26 cells (receptor, human, UniProt P43629 22-444, looked up)
chain: HMGGQDKPFLSAWPSAVVPRGGHVTLRCHYRHRFNNFMLYKEDRIHIPIFHGRIFQESFNMSPVTTAHAGNYTCRGSHPHSPTGWSAPSNPVVIMVTGNHRKPSLLAHPGPLVKSGERVILQCWSDIMFEHFFLHKEGISKDPSRLVGQIHDGVSKANFSIGPMMLALAGTYRCYGSVTHTPYQLSAPSDPLDIVVTGPYEKPSLSAQPGPKVQAGESVTLSCSSRSSYDMYHLSREGGAHERRLPAVRKVNRTFQADFPLGPATHGGTYRCFGSFRHSPYEWSDPSDPLLVSVTGNPSSSWPSPTEPSSKSGNPRHLHILIGTSVVIILFILLLFFLLHLWCSNKKNAAVMDQEPAGNRTANSEDSDEQDPEEVTYAQLDHCVFTQRKITRPSQRPKTPPTDTILYTELPNAKPRSKVVSCP
notes: whole, on cells; lentiviral vector containing a thy1.1 tag
- binding result [7]: binds
- binding result [6]: no binding

B4: Antibody C32 (B104) (antibody, IgG1, V domains shown)
VH: QVQLVQSGAEVKRPGASVKVSCKASGYTFTNDIIHWVRQAPGQRLEWMGWINAGYGNTQYSQNFQDRVSITRDTSASTAYMELISLRSEDTAVYYCARGYYRSPTWFDWWGQGTLVTVSS
VL: ETTLTQSPSSLSASVGDRVTITCRASQSISSWLAWYQQKPGKAPKLLIYKASSLESGVPSRFSGSGSGTEFTLTISSLQPDDFATYYCQQYGDYPYTFGQGTKLEIKR
notes: also called mAb-B104 (C32)
- Kd [1]: 25.9 nM
- binding result [2]: binds
- Kd [3]: < 50 nM
- binding result [4]: no binding (tested: not shown on the sheet)
- EC50 [5]: 5.42 nM

Source: patent US20230303695A1 (SHANGHAI XBH BIOTECHNOLOGY, published 2023)
